# Source: US7932067B2, “Detection, isolation and uses of renalase (monoamine oxidase C)” (Yale University, priority 2004, dated 2011)
# Key:
# nephrectomized rats [1] = experiment: Prophylactic model for chronic renal failure (rat remnant kidney model); assay type: in vivo; details: 100 microgram/kg SQ twice per day, 8-9 weeks
# Source text: (§1) A rat partial (5/6) nephrectomy or rat remnant kidney model can be used as described (Wada, M et al; J Clin Invest 1997 Dec. 15; 100(12):2977-83). Male rats (2-3 months old, weighing about 150-200 g) are subjected to unilateral nephrectomy (either left or right kidney) first. A 2.0 cm skin incision is made in the ventral midline, with its cranial terminus 1.0 cm caudal to the xyphoid process. A 2.0 cm muscle incision is made along the midline. The right kidney is isolated and cleared of surrounding fat and connective tissue to clearly view the renal artery and vein, and ureter as they enter the hilus of the kidney. Care is exercised to minimize disturbance of the adrenal gland. A ligature (3/0 silk) is placed around the renal artery, vein and ureter. These vessels are then cut proximal to the kidney and the kidney is removed, taking care that the adrenal gland is not disturbed. The second step of the surgical procedure involves the removal of the 2/3 of the remaining kidney in 7-10 days after the first step. Plasma creatinine (Cr) and BUN levels rise dramatically due to the loss of renal mass and function. Over the next several weeks, plasma Cr and BUN levels of surviving animals decline somewhat toward normal values but remain elevated. Renal function then appears to remain relatively constant or stable for a period of variable duration. […]
# [2] = Amine oxidase assay of renalase (Amplex Red Monoamine Oxidase Assay Kit) with amines as substrates; assay type: biochemical, human; details: GST-renalase fusion protein, battery of amines as substrates, 2 mM
# Experimental: Enzyme assay of renalase was carried out using an Amplex Red Monoamine Oxidase Assay Kit (Molecular Probes, Cat # A-12214) that provides one-step fluorometric method for the continuous measurement of amine oxidase activity using a fluorescence microplate reader. The assay is based on the detection of H2O2 in a horseradish peroxidase-coupled reaction using 10-acetyl-3,7-dihydroxy-phenoxazine (Amplex Red reagent), a highly sensitive and stable probe for H2O2. Experiments were carried out according to manufacturer's instruction with a final substrate concentration of 2 mM.
# Therefore, we tested whether it had oxidase activity using a battery of amines as substrates. Renalase fusion protein in E. Coli was generated by cloning renalase cDNA into a Glutathione-S-Transferase (GST)-1-containing pGEX expression vector using the GST Gene Fusion System. […] Its enzymatic activity was unaffected by inhibitors of the FAD-containing amine oxidases, MAO-A and MAO-B (FIG. 4b).
# We subsequently tested whether renalase has an oxidase activity using a battery of amines as substrates. […] Thus, it can be concluded that renalase is novel protein that metabolizes dopamine, norepinephrine and epinephrine.
# Sprague Dawley rats = experiment: Hemodynamics measurements after bolus intravenous injection of recombinant renalase; assay type: in vivo, rat
# Experimental: Sprague Dawley rats (150-250 g) were anesthetized with inactin (100 mg/kg). A catheter (PE-240) was placed in the trachea for airway protection and in the left jugular vein (PE-50) for intravenous infusion of a maintenance fluid solution consisting of normal saline with 6.25% bovine albumin, at a rate of 1.5 ml per 100 g body wt per hour. Core temperature was monitored through a rectal thermometer and body temperature was maintained at 37° C. using a heating pad. Arterial pressure and heart rate were continuously monitored through a PE-50 catheter inserted in the left carotid artery and connected to a pressure transducer (ADInstruments, CO, USA). Hemodynamic recordings were digitized, stored and analyzed using a PowerLab/8SP data acquisition system (ADIntruments). The rats were allowed 1 h to recover after completion of the surgical procedure, and the subsequent 30 minutes served as a control period. The experimental group then received a bolus intravenous injection of 0.5 mg of recombinant renalase in 0.5 ml PBS. The control group was injected with either 0.5 mg BSA or 0.5 mg recombinant glutathione transferase in 0.5 ml of PBS. Blood pressure and heart rate were continuously measured and recorded.
# Blood pressure is a function of cardiac output and peripheral vascular resistance, and is regulated by the sympathetic nervous system. Circulating catecholamines control heart rate, myocardial contractility, and the tone of resistance vessels. Since renalase circulates in blood and degrades catecholamines, we examined its in vivo effect on hemodynamic parameters. Within 30 seconds of a single bolus intravenous injection of recombinant renalase, systolic, diastolic and mean arterial pressure decreased by 23.5±1.3, 32.6±2.9 and 28.9±2.7% respectively, (n=4, p<0.001). […] Heart rate remained unchanged initially, and decreased slightly (6.4%) by 60 min, (FIG. 7A, lower panel). In control studies, blood pressure and heart rate were unaffected by either albumin or GST infusion (FIG. 7B). […] Alternatively, renalase could bind to a cognate receptor and modulate myocardial contractility and vascular resistance directly.
# nephrectomized rats [3] = experiment: Intervention model for chronic renal failure (rat remnant kidney model); assay type: in vivo; details: nephrectomized rats, 10, 100, 500 microgram/kg SQ twice per day, 4-8 weeks
# Source text: as §1
# [4] = rat, nadir between 60-90 minutes after injection, n=4, p<0.01
# [5] = rat, within 30 seconds of single bolus iv injection, 0.5 mg, n=4, p<0.001
molecule,measurement,setting,value
"Renalase: novel FAD-dependent monoamine oxidase secreted by the kidney that metabolizes dopamine, norepinephrine and epinephrine; SEQ ID NO: 2 (protein, listed as Homo sapiens) MAQVLIVGAGMTGSLCAALLRRQTSGPLYLAVWDKADDSGGRMTTACSPHNPQCTADLGAQYITCTPHYAKKHQRFYDELLAYGVLRPLSSPIEGMVMKEGDCNFVAPQGISSIIKHYLKESGAEVYFRHRVTQINLRDDKWEVSKQTGSPEQFDLIVLTMPVPEILQLQGDITTLISECQRQQLEAVSYSSRYALGLFYEAGTKIDVPWAGQYITSNPCIRFVSIDNKKRNIESSEIGPSLVIHTTVPFGVTYLEHSIEDVQELVFQQLENILPGLPQPIATKCQKWRHSQVTNAAANCPGQMTLHHKPFLACGGDGFTQSNFDGCITSALCVLEALKNYI","expected effect on initiation of chronic renal failure (plasma BUN, Cr)",nephrectomized rats [1],"prevent, inhibit or delay the initiation of chronic renal failure"
same,rank order potency of catecholamine metabolism,[2],dopamine>epinephrine>norepinephrine
same,Arterial elastance,"Sprague Dawley rats; Table 1, renalase vs control 0.94 ± 0.09, n=3, NS",0.8 ± 0.04 mmHg/uL
same,End diastolic pressure,"Sprague Dawley rats; Table 1, renalase vs control 11.3 ± 1.8, n=5, NS",9.3 ± 1.5 mmHg
same,Cardiac Output,"Sprague Dawley rats; Table 1, renalase vs control 45.8 ± 2.8, n=3, p<0.03",33.2 ± 1.5 mL/min
same,Mean Arterial Pressure,"Sprague Dawley rats; Table 1, renalase vs control 106.4 ± 4.7, n=8, p<0.0001",65.3 ± 3.5 mmHg
same,End systolic pressure,"Sprague Dawley rats; Table 1, renalase vs control 127.7 ± 8.1, n=5, p<0.004",92.7 ± 2.7 mmHg
same,Heart rate,"Sprague Dawley rats; Table 1, renalase vs control 342 ± 6, n=5, p<0.004",304 ± 9 beats/min
same,Systemic vascular resistance,"Sprague Dawley rats; Table 1, renalase vs control 2323 ± 196, n=3, NS",1966 ± 183 mmHg/L/min
same,dP/dt,"Sprague Dawley rats; Table 1, renalase vs control 8604 ± 728, n=5, p<0.001",5235 ± 442 mmHg/sec
same,decrease in heart rate,"Sprague Dawley rats; rat, by 60 min after injection",6.4%
same,"heart rate, initial response","Sprague Dawley rats; rat, initially after bolus iv injection",unchanged
same,diastolic arterial pressure lower than baseline at nadir,Sprague Dawley rats; [4],14.3±1.2%
same,mean arterial pressure lower than baseline at nadir,Sprague Dawley rats; [4],14.8±1.1%
same,systolic arterial pressure lower than baseline at nadir,Sprague Dawley rats; [4],16.5±1.5%
same,time to recovery of blood pressure after initial fall,"Sprague Dawley rats; rat, single bolus iv injection",≤ 2 min
same,decrease in diastolic arterial pressure,Sprague Dawley rats; [5],32.6±2.9%
same,decrease in mean arterial pressure,Sprague Dawley rats; [5],28.9±2.7%
same,decrease in systolic arterial pressure,Sprague Dawley rats; [5],23.5±1.3%
same,"expected treatment benefit to Nx rats (plasma BUN, Cr)",nephrectomized rats [3],slow down chronic renal failure progression
